Measurements: US20160185857A1 (published 2016)

T1: recombinant soluble human FcγRIIB (UniProt P31994 43-217)
T1 chain: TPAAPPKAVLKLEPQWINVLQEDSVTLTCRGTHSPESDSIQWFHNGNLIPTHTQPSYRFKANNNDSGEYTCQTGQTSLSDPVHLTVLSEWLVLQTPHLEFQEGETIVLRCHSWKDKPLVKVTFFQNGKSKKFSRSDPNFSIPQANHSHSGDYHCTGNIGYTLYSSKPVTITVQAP

B1: chGB3_N297A (chimeric GB3, prior art antibody of WO 2005/051999, N297A format) (antibody, V domains shown)
VH: VQLQQSGPELVKPGASVKISCKASGYTFTDYYIYWVKQWPGQGLEWIGWIFPGTGNTYYNENFKDKATLTIDRSSSTAYMLLGSLTSEDSAVYFCYGPFAYWGQ
VL: RIQLTQSPSSLSASLGERVSLTCRASQEISGYLSWLQQKPDGTIKRLIYATSALDSGVPKRFSGSGSGSNYSLTISSLESEDFADYYCLQYANYPYTFGGGTKL
B2: ch8A6_wt (antibody)
chain 1: EVQLVESGGDLVQPGRSLRLSCAASGFTFSDYYMAWVRQAPKKGLEWVASISSDGSNTYYGDSVKGRFTISRDNTRSNLYLQMNSLRSEDTATYYCARPGDYWGQGVMVTVSS
chain 2: NIVMTQSPTSMFISVGDRVTMNCKASQNVGTYVDWFQQKTGQSPTLLIFGASNRYTGVPDRFTGSGSGTDFTLSISNMQAEDLAVYYCLQYNYHPYTFGPGTTLELKR

Biological target: T1, recombinant soluble human FcγRIIB
Test: SPR

Binder | koff [s⁻¹]
B1 | 0.01
B2 | 0.00049
